Consider three compounds from patent publication US20050267016A1, “CD-10 activated prodrug compounds” (priority 2001, published 2005).

Data set [1] in a line: Metabolism and clearance in normal mice (plasma and urine, LC MS/MS). Format: in vivo. Conditions: mouse, in vivo; for dose excreted: iv, 117 mg/kg. Here is the method:
The metabolism and clearance of Suc-Ile-Ala-Leu-Dox was studied in normal mice. The mice were administered Suc-Ile-Ala-Leu-Dox at a single intravenous bolus dose of 117 mg/kg. Plasma samples were obtained at 1 and 4 hours. Plasma samples of 100 μl were transferred to microcentrifuge tubes (1.5 mL) and an internal standard of daunorubicin (20 μL at 0.5 mg/ml) was added together with acetonitrile (400 μl). The tubes were capped and briefly vortexed followed by centrifugation at 14,000 rpm. 420 μl from each tube was removed and dried in vacuo. Each sample was reconstituted in 65 μl 20 mM aqueous ammonium formate pH 4.5 buffer (AF) containing acetonitrile (20%) prior to analysis by reverse phase liquid chromatography in combination with tandem mass spectrometry (LC MS/MS).
Urine was collected at 2 and 24 hours post administration from pairs of mice in metabolic cages. Urine samples were diluted with AF containing acetonitrile (20%) to give a target analyte concentration within the practical range of the LC MS/MS assay. 30 μl of each diluted sample was placed in an Eppendorf tube (1.5 ml) and an internal standard of daunorubicin (20 μL at 0.5 mg/ml) was added together with 50 μl of AF containing acetonitrile (20%). Each sample was then analyzed by LC MS/MS.
An Agilent HP1100 HPLC with DAD detector and Chemstation software was coupled to a PE Sciex API 365 mass spectrometer with an electrospray ion source. HPLC was performed on a TSK-Gel Super ODS, […], 4.6×50 mm (TosoHaas) reversed phase column equipped with a […] C18 guard disc (Higgins Analytical) and stainless steel frit (Upchurch Scientific). Chromatography was performed at room temperature. The flow rate was 0.5 ml/min. Injection volume was 50 μL. Gradient elution was performed using a mobile phase of 20 mM aqueous AF pH 4.5 buffer with increasing amounts of acetonitrile. The API 365 was operated at 365° C. in a multiple reaction monitoring mode, set to monitor specific analyte parent-daughter ion pairs. Integration of chromatograms was performed by MacQuant software (PE Sciex) and quantitation of each analyte obtained by comparison to previously obtained calibration curves. Daunorubicin was used as an internal standard in all cases.
For the calculation of percent of administered dose, plasma volume was estimated to be 40% of blood volume, which was calculated as 7% of animal's body weight. At 2 and 24 hours the parent compound was detected in urine at 3.9% and 15.0% of the administered dose, showing that the kidney is a major organ of excretion for the prodrug (FIG. 17).
Plasma samples were obtained at 1 and 4 hours from separate mice. Urine was collected at 2 and 24 hours post administration from pairs of mice in metabolic cages. The plasma and urine samples were prepared and analyzed as described in Example 17.

The test system of data set [2] is BALL-1 cells (CD10neg). As to the kind of experiment: cells. Conditions: 24 h. As for the experimental part:
(§1) Suspension cells, BALL-1, Ramos and Namalwa cells were cultured in RPMI media containing 10% heat inactivated fetal calf serum (FCS). On the day of the study, the cells were collected, washed and resuspended at a concentration of 0.5×10^6 cells/ml in RPMI containing 10% FCS. 100 µl of cell suspension was added to 96 well plates. […] Finally 10 μl of a 100 μCi/ml ^3H-thymidine was added per well and the plates were incubated for 24 hours. The plates were harvested using a 96 well Harvester (Packard Instruments) and counted on a Packard Top Count counter. Four parameter logistic curves were fitted to the ^3H-thymidine incorporation as a function of drug molarity using Prism software to determine IC50 values.
(§2) The effect of two known inhibitors of CD10 on prodrug activity in Ramos, LNCaP and Ball-1 cells was evaluated. The IC50 of Suc-βAla-Ile-Ala-Leu-Dox was determined in the presence of increasing concentration of the CD10 inhibitors, phosphoramidon and thiorphan.

Data set [3] deals with Ramos cells (CD10pos). The data set can be described thus: cells. The note with it: 24 h. As for the experimental part: as §1, §2

Usually IC50 stands for the midpoint of a concentration-inhibition curve. A lower IC50 goes with higher potency.

The structures appear in SMILES notation.

In the case of `COc1cccc2c1C(=O)c1c(O)c3c(c(O)c1C2=O)C[C@@](O)(C(=O)CO)C[C@@H]3O[C@H]1C[C@H](NC(=O)[C@H](CC(C)C)NC(=O)[C@H](C)N)[C@H](O)[C@H](C)O1` [Ala-Leu-Dox], in data set [1], the “Plasma (% adm. dose) 1 hr” value is 0.00 % adm. dose and the “Plasma (% adm. dose) 4 hr” value is 0.00 % adm. dose. In addition, in data set [1] (Urine (% adm. dose) 2 hr), the dose excreted was 0%. Also, the dose excreted in data set [1] (Urine (% adm. dose) 24 hr) came out at 0%.

`COc1cccc2c1C(=O)c1c(O)c3c(c(O)c1C2=O)C[C@@](O)(C(=O)CO)C[C@@H]3O[C@H]1C[C@H](NC(=O)[C@@H](N)CC(C)C)[C@H](O)[C@H](C)O1` [Leu-Dox]: the dose excreted in data set [1] (Urine (% adm. dose) 2 hr) came to 1.17%; in data set [1] (Urine (% adm. dose) 24 hr), 2.25%.

For the compound `COc1cccc2c1C(=O)c1c(O)c3c(c(O)c1C2=O)C[C@@](O)(C(=O)CO)C[C@@H]3O[C@H]1C[C@H](NC(=O)[C@H](CC(C)C)NC(=O)[C@H](Cc2ccc(O)cc2)NC(=O)[C@H](CC(C)C)NC(=O)CCC(=O)O)[C@H](O)[C@H](C)O1` [Suc-Leu-Tyr-Leu-Dox], the IC50 is 17 µM in data set [2] and 20 µM in data set [3].
